Measured values taken from patent publication US20190185537A1 (AstraZeneca / MedImmune, published 2019).
Where two headings read alike, the source gives them in different places. Numbered stars: 1 amine (or outer) side, 2 acyl side, 3 side chain; on linkers, the order of the positions; unused ones are H or OH. Side chains are listed from the residue outwards. Ends that are not written are not given here. * marks the point of attachment. γGlu = O=C(O)[C@H](CCC(=O)[*:2])N[*:1]; Palmitoyl = CCCCCCCCCCCCCCCC(=O)*

T1: rat GLP-1 receptor (rat, UniProt P32301 22-463)
T1 sequence (looked up): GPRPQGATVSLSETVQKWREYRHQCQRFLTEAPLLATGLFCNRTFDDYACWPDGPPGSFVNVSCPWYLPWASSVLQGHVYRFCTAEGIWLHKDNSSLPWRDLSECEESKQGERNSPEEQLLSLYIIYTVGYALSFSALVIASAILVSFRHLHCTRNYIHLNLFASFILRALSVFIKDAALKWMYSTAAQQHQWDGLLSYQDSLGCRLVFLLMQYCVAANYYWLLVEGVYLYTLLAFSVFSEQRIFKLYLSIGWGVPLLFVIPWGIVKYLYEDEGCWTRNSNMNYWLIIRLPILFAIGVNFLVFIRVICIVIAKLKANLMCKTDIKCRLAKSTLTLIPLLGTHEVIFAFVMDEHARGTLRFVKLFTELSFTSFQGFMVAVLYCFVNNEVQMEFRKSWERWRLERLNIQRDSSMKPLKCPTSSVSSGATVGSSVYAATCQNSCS

T2: mouse GLP-1 receptor (mouse, UniProt O35659 22-463)
T2 sequence (looked up): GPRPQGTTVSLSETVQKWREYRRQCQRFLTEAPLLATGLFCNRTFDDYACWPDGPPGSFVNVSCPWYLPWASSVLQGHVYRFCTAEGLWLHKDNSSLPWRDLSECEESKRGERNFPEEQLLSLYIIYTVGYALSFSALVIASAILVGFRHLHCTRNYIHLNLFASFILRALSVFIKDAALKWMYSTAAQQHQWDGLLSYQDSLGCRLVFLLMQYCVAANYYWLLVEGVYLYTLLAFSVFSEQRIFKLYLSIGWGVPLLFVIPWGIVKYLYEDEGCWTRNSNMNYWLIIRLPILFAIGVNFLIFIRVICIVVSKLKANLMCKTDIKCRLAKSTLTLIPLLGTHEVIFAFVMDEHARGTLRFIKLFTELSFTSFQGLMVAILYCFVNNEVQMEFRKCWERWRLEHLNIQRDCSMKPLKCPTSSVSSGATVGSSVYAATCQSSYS

T3: human glucose-dependent insulinotropic peptide (gastric inhibitory polypeptide) receptor (human, UniProt P48546 22-466)
T3 sequence (looked up): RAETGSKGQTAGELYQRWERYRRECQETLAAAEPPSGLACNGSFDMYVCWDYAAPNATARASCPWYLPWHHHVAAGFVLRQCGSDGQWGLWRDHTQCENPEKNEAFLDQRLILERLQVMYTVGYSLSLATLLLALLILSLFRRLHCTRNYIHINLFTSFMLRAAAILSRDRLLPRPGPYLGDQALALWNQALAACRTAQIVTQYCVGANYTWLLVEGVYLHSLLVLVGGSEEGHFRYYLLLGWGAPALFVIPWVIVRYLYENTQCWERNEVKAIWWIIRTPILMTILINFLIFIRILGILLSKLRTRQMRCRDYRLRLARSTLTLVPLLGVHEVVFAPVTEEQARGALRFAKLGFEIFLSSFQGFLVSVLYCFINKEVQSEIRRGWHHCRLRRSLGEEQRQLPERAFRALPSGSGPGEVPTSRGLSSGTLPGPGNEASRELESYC


Columns and labels:
human GLP-1 receptor [1] = biological target: T4, human GLP-1 receptor (human, UniProt P43220 24-463); assay: cell-based or functional assay
human glucagon receptor [2] = biological target: T5, human glucagon receptor (human, UniProt P47871 26-477); assay: cell-based or functional assay
T5 sequence (P47871 26-477): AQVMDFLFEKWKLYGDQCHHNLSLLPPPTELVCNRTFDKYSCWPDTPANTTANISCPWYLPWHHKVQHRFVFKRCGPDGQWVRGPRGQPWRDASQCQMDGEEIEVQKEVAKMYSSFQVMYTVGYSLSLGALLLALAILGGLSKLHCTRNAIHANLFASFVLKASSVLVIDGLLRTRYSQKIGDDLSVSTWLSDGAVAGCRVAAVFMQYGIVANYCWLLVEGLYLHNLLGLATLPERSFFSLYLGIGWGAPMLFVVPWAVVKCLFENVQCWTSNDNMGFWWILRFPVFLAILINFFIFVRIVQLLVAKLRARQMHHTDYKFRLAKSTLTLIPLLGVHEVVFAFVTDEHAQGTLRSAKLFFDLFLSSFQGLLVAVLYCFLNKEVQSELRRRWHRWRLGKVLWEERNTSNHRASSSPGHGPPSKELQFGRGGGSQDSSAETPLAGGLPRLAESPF

rat glucagon receptor = rat glucagon receptor (rat, UniProt P30082 27-485); assay: cell-based or functional assay
Chain of rat glucagon receptor (P30082 27-485): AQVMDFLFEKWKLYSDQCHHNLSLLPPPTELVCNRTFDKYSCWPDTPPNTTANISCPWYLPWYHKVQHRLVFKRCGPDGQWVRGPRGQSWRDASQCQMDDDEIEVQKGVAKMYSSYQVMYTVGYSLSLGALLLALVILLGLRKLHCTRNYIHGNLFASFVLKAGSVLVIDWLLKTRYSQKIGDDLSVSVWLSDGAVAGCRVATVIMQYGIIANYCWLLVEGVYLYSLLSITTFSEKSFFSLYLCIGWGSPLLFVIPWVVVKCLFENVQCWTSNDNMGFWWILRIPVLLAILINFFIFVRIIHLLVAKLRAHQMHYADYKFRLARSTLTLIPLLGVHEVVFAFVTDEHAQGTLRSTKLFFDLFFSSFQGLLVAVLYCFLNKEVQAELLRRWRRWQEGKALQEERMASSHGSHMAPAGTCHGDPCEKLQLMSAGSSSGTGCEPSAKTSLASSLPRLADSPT

rat GLP-1 receptor = biological target: T1, rat GLP-1 receptor; assay: cell-based or functional assay
mouse glucagon receptor = mouse glucagon receptor (mouse, UniProt Q61606 27-485); assay: cell-based or functional assay
Chain of mouse glucagon receptor (Q61606 27-485): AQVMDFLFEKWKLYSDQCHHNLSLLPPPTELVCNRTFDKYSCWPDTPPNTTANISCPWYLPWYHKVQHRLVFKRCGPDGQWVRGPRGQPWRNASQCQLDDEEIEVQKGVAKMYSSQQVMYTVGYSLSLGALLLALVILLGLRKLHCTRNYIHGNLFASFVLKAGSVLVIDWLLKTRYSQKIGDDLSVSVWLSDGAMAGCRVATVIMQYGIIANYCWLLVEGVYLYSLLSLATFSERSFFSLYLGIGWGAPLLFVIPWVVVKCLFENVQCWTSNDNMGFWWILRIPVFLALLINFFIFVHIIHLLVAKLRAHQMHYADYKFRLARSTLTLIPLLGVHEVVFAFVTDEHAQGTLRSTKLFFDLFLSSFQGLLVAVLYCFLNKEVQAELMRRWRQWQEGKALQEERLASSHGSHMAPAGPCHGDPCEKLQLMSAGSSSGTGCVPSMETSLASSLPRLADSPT

human GLP-1 receptor [3] = biological target: T4, human GLP-1 receptor; assay: cell-based or functional assay; remark: listed apart in the source
human glucagon receptor [4] = biological target: T5, human glucagon receptor; assay: cell-based or functional assay; remark: listed apart in the source
mouse GLP-1 receptor = biological target: T2, mouse GLP-1 receptor; assay: cell-based or functional assay
human GLP-1 receptor [5] = biological target: T4, human GLP-1 receptor; assay: cell-based or functional assay; remark: listed apart in the source
[6] = biological target: T3, human glucose-dependent insulinotropic …; assay: cell-based or functional assay
human GLP-1 receptor [7] = biological target: T4, human GLP-1 receptor; assay: cell-based or functional assay; remark: listed apart in the source
human glucagon receptor [8] = biological target: T5, human glucagon receptor; assay: cell-based or functional assay; remark: listed apart in the source
[9] = biological target: human serum albumin (human) (UniProt P02768); assay: calculated from the variation in cAMP generation with the HSA concentration
Chain of human serum albumin (human) (P02768 25-609 limits assumed): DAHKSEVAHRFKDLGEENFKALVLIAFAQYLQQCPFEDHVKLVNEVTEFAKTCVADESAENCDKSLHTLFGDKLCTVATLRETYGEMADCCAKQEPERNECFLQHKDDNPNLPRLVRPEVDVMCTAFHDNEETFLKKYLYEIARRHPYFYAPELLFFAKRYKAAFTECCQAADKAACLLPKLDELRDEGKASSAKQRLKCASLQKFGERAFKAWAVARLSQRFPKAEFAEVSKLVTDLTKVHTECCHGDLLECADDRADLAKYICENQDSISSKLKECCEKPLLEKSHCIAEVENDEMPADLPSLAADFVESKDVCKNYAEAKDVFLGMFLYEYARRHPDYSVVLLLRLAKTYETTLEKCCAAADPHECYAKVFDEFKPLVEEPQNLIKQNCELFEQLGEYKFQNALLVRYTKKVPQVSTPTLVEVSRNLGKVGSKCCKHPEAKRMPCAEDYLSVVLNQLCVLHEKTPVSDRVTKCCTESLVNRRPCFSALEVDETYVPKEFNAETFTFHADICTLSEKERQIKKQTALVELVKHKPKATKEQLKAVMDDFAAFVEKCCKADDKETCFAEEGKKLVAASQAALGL

[10] = biological target: T3, human glucose-dependent insulinotropic …; assay: cell-based or functional assay; remark: listed apart in the source
human GLP-1 receptor [11] = biological target: T4, human GLP-1 receptor; assay: cell-based or functional assay; remark: listed apart in the source
human glucagon receptor [12] = biological target: T5, human glucagon receptor; assay: cell-based or functional assay; remark: listed apart in the source

Binder | cAMP EC50 (assay 1) (human GLP-1 receptor [1]) [pM] | cAMP EC50 (assay 1) (human glucagon receptor [2]) [pM] | cAMP EC50 (assay 2, 3.2% rat serum albumin) (rat glucagon receptor) [pM] | cAMP EC50 (assay 2, 3.2% rat serum albumin) (rat GLP-1 receptor) [pM] | cAMP EC50 (assay 2, 3.2% mouse serum albumin) (mouse glucagon receptor) [pM] | cAMP EC50 (assay 2, 4.4% human serum albumin) (human GLP-1 receptor [3]) [pM] | cAMP EC50 (assay 2, 4.4% human serum albumin) (human glucagon receptor [4]) [pM] | cAMP EC50 (assay 2, 3.2% mouse serum albumin) (mouse GLP-1 receptor) [pM] | EC50 at the GLP1R at 0% HSA (calculated) (human GLP-1 receptor [5]) [pM] | cAMP EC50 (assay 1) [6] [pM] | cAMP EC50 (assay 1) (human GLP-1 receptor [7]) [pM] | cAMP EC50 (assay 1) (human glucagon receptor [8]) [pM] | free peptide at 4.4% HSA [9] [%] | cAMP EC50 (assay 1) [10] [pM] | cAMP EC50 (assay 1) (human GLP-1 receptor [11]) [pM] | cAMP EC50 (assay 1) (human glucagon receptor [12]) [pM]
HSQGTFTSDYSKK([γGlu-Palmitoyl])LDSERARDFVAWLVAGG-NH2 (N-terminus assumed; SMILES CCCCCCCCCCCCCCCC(=O)N[C@@H](CCC(=O)NCCCC[C@H](NC(=O)[C@H](CCCCN)NC(=O)[C@H](CO)NC(=O)[C@H](Cc1ccc(O)cc1)NC(=O)[C@H](CC(=O)O)NC(=O)[C@H](CO)NC(=O)[C@@H](NC(=O)[C@H](Cc1ccccc1)NC(=O)[C@@H](NC(=O)CNC(=O)[C@H](CCC(N)=O)NC(=O)[C@H](CO)NC(=O)[C@@H](N)Cc1c[nH]cn1)[C@@H](C)O)[C@@H](C)O)C(=O)N[C@@H](CC(C)C)C(=O)N[C@@H](CC(=O)O)C(=O)N[C@@H](CO)C(=O)N[C@@H](CCC(=O)O)C(=O)N[C@@H](CCCNC(=N)N)C(=O)N[C@@H](C)C(=O)N[C@@H](CCCNC(=N)N)C(=O)N[C@@H](CC(=O)O)C(=O)N[C@@H](Cc1ccccc1)C(=O)N[C@H](C(=O)N[C@@H](C)C(=O)N[C@@H](Cc1c[nH]c2ccccc12)C(=O)N[C@@H](CC(C)C)C(=O)N[C@H](C(=O)N[C@@H](C)C(=O)NCC(=O)NCC(N)=O)C(C)C)C(C)C)C(=O)O) [G730] | – | – | 45100 | 81 | 5460 | 455 | 402 | 1100 | 7 | 45000 | 18 | 6.23 | 0.85 | 56600 | 39.5 | 15
HSQGTFTSDKSKYLEGQAAKEFIAWLEKGR (X10 = K(gE-palm); C-terminal amide) [G812] | – | – | 14100 | 19 | 947 | 316 | 764 | 130 | – | 2700 | 11 | 8.17 | – | – | – | –

Continued, values first:

cAMP EC50 (assay 1) (human GLP-1 receptor [1]) [pM] | cAMP EC50 (assay 1) (human glucagon receptor [2]) [pM] | cAMP EC50 (assay 2, 3.2% rat serum albumin) (rat glucagon receptor) [pM] | cAMP EC50 (assay 2, 3.2% rat serum albumin) (rat GLP-1 receptor) [pM] | cAMP EC50 (assay 2, 3.2% mouse serum albumin) (mouse glucagon receptor) [pM] | cAMP EC50 (assay 2, 4.4% human serum albumin) (human GLP-1 receptor [3]) [pM] | cAMP EC50 (assay 2, 4.4% human serum albumin) (human glucagon receptor [4]) [pM] | cAMP EC50 (assay 2, 3.2% mouse serum albumin) (mouse GLP-1 receptor) [pM] | EC50 at the GLP1R at 0% HSA (calculated) (human GLP-1 receptor [5]) [pM] | cAMP EC50 (assay 1) [6] [pM] | cAMP EC50 (assay 1) (human GLP-1 receptor [7]) [pM] | cAMP EC50 (assay 1) (human glucagon receptor [8]) [pM] | free peptide at 4.4% HSA [9] [%] | cAMP EC50 (assay 1) [10] [pM] | cAMP EC50 (assay 1) (human GLP-1 receptor [11]) [pM] | cAMP EC50 (assay 1) (human glucagon receptor [12]) [pM] | Binder
130 | 17.8 | – | – | – | – | – | – | – | – | – | – | – | – | – | – | HSQGTFTSDYSKK([γGlu-Palmitoyl])LDSERARDFVAWLVAGG-OH (N-terminus assumed; SMILES CCCCCCCCCCCCCCCC(=O)N[C@@H](CCC(=O)NCCCC[C@H](NC(=O)[C@H](CCCCN)NC(=O)[C@H](CO)NC(=O)[C@H](Cc1ccc(O)cc1)NC(=O)[C@H](CC(=O)O)NC(=O)[C@H](CO)NC(=O)[C@@H](NC(=O)[C@H](Cc1ccccc1)NC(=O)[C@@H](NC(=O)CNC(=O)[C@H](CCC(N)=O)NC(=O)[C@H](CO)NC(=O)[C@@H](N)Cc1c[nH]cn1)[C@@H](C)O)[C@@H](C)O)C(=O)N[C@@H](CC(C)C)C(=O)N[C@@H](CC(=O)O)C(=O)N[C@@H](CO)C(=O)N[C@@H](CCC(=O)O)C(=O)N[C@@H](CCCNC(=N)N)C(=O)N[C@@H](C)C(=O)N[C@@H](CCCNC(=N)N)C(=O)N[C@@H](CC(=O)O)C(=O)N[C@@H](Cc1ccccc1)C(=O)N[C@H](C(=O)N[C@@H](C)C(=O)N[C@@H](Cc1c[nH]c2ccccc12)C(=O)N[C@@H](CC(C)C)C(=O)N[C@H](C(=O)N[C@@H](C)C(=O)NCC(=O)NCC(=O)O)C(C)C)C(C)C)C(=O)O) [G931]
– | – | 4060 | 44 | 103 | 172 | 79 | – | 2 | 17000 | 9 | 2.26 | 0.48 | 18100 | 9.07 | – | HSQGTFTSDKSRYLDSRSARDFVAWLEAGG (X10 = K(gE-palm); C-terminal amide) [G849]
